Values of other authors in article PMC5453503.
pKd: −log10 of the molar value. Where “and” joins values, the source holds several entries; their conditions need not be identical. Identical values can stand only once.

Biological target: VEGFR2 (Homo sapiens) (UniProt P35968)
UniProt P35968, sequence (P35968 20-1356): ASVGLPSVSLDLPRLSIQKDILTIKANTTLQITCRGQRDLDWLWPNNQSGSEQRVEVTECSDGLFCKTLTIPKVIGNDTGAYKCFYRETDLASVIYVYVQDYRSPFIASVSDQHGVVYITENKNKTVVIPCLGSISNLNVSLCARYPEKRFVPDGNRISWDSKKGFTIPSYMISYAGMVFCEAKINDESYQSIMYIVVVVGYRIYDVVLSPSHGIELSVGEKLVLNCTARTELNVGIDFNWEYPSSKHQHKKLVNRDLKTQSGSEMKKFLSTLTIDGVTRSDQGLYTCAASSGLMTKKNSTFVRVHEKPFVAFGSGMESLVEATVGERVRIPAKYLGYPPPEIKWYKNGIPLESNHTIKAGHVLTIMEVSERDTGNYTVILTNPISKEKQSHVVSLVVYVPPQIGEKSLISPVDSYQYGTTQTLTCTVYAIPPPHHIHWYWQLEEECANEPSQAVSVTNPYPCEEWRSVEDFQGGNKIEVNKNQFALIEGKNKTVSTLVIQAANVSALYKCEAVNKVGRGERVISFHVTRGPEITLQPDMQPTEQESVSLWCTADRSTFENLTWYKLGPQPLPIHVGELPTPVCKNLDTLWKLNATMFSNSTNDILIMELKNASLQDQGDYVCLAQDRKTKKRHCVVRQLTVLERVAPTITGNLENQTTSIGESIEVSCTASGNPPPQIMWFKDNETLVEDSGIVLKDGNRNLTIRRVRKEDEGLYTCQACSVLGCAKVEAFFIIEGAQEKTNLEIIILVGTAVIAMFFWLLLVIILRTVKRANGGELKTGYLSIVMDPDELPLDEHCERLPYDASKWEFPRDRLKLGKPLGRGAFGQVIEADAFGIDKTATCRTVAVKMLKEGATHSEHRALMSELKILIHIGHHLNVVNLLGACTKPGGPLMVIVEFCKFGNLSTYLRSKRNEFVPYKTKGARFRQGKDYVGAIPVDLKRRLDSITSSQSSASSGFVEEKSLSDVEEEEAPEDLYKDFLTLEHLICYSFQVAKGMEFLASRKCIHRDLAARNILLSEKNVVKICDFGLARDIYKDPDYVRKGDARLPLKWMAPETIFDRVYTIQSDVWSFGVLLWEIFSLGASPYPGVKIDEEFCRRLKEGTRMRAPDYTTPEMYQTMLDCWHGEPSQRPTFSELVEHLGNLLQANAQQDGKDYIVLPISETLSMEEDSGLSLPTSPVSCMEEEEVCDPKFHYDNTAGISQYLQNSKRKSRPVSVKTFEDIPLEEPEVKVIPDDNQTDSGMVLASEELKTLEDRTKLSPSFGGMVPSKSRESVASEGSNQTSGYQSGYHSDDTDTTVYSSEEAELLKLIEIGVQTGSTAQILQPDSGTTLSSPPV

Substance: VEGF165a (from UniProt P15692)
- pKd: 9.39 and 9.12
